Data on 11 molecules can be found in patent US20230220073A1 (UCL BUSINESS, published 2023).

Where a chain is given by its changes, count along the chain named.

Assay [1] addresses T1, ROR1 Frizzled domain alone, on transduced SUP-T1 cells (human, UniProt Q01973 165-299).
T1 construct: domain: Fz; also called Fz; ROR1-Fz domain
Briefly: flow cytometry, transduced SUP-T1 cells, anti-human Fc-Dylight647. How it is done: (§1) FIG. 1A-FIG. 1C: Identification of ROR1 binding domain: FIG. 1A: SUP-T1 cells were transduced with retroviral vectors containing either the full extracellular portion of ROR1 or only one or two extracellular domains. Non-transduced SUP-T1 (SUP-T1 NT) cells served as negative control. FIG. 1B: All 12 chimeric antibodies and FIG. 1C all 10 positive clones in scFv format were incubated with SUP-T1 NT and the new stable cell lines at 4° C. for 30 min. Cells were washed and stained with a secondary antibody (anti-human Fc-Dylight647), which was used as negative control. eROR1=extracellular ROR1, Ig-like=Immunoglobulin-like domain, Fz=Frizzled domain, Kg=Kringle domain.
Background: Flow cytometry measures light scatter and fluorescence of single cells or particles in a stream.

Assay [2] addresses T2, Fz+Kg (human, UniProt Q01973).
T2 construct: also called ROR1 Frizzled+Kringle domains, on transduced SUP-T1 cells
Described as above. How it is done:
as §1

Assay [3] concerns the target T3, Kringle (Kg) (human, UniProt Q01973).
T3 construct: also called ROR1 Kringle domain alone, on transduced SUP-T1 cells
The description is as above. Here is the method:
as §1

Assay [4] has as its target T4, Histidine-tagged ROR1 protein (extracellular region) (UniProt Q01973 30-406).
T4 construct: extracellular domain; also called extracellular portion of ROR1 bearing a Histidine tag; not shown: Histidine tag
In words: SPR, Biacore X100; antibody captured by anti-human IgG1 on CM5 chip, His-tagged ROR1 extracellular portion injected at 1.5-100 nM. Here is the method: FIG. 3: KD determination by surface plasmon resonance. Sensorgrams obtained using a Biacore X100 instrument are shown. Briefly, ROR1 antibodies were immobilized using a CM5 chip and seven different concentrations of the Histidine-tagged ROR1 protein (extracellular region) were injected. Concentrations ranged from […].
We undertook surface plasmon resonance evaluation using a Biacore X100 instrument. ROR1 chimeric antibodies were immobilised using an anti-human IgG1 antibody capture kit and a CM5 sensor chip. Seven different concentrations, ranging from 1.5-100 nM, of the extracellular portion of ROR1 bearing a Histidine tag were then injected.
Background: SPR reads the build-up and loss of mass on a sensor chip optically.

Assay [5] deals with T5, ROR1, full extracellular region, on transduced SUP-T1 cells (UniProt Q01973 30-406).
T5 construct: extracellular domain; also called eROR1; extracellular ROR1
Briefly: flow cytometry, ROR1-transduced cells, single staining; Q1 = ahFc+ only; amFc+ahFc alone Q1 0.060 (FIG. 7A).

The target of assay [6] is T5, ROR1, full extracellular region, on …. In words: flow cytometry, ROR1-transduced cells, single staining; Q1 = ahFc+ only; amFc+ahFc alone Q1 0.060. An excerpt:
FIG. 7A-FIG. 7C: Competition assay by flow cytometry. Clone A (SA1) in murine IgG2a, k (mSA1) along with other ROR1 MAbs in human IgG1, k-including previously published 4a5, D10 and R12 clones—were used for staining ROR1-transduced cells. MAb staining was done as FIG. 7A-FIG. 7B: single agents or FIG. 7C: in combination with clone A (mSA1). Anti-human IgG (450) and anti-mouse IgG (DyLight649) were used as secondary antibodies. Combined staining using clones F and mSA1 acted as negative control for overlapping epitopes.
In FIG. 7C, three different columns are presented. Dot plots on the first column correspond to ROR1 binding assessed when SUP-T1 ROR1 cells were stained with clone A (SA1) (mIgG) in the first instance. After a washing step, cells were stained with a competitor antibody (hIgG), followed by another washing step. Both antibodies were then detected by a third staining step using the appropriate secondary antibodies. In the second column, a similar approach was taken when staining these cells, except that this time it was the antibody in hIgG1, k format the one used for the first staining step, followed by clone A (SA1) staining. On the third column, both antibodies were used at the same time.

T3 sequence (Q01973 312-391 limits assumed): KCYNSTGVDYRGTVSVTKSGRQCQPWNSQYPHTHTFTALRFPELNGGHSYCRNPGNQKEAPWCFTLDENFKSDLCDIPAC
T1 sequence (Q01973 165-299): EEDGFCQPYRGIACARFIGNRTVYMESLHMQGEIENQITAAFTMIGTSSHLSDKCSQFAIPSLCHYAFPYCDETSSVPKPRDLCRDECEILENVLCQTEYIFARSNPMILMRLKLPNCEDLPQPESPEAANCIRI
T4 sequence (Q01973 30-406): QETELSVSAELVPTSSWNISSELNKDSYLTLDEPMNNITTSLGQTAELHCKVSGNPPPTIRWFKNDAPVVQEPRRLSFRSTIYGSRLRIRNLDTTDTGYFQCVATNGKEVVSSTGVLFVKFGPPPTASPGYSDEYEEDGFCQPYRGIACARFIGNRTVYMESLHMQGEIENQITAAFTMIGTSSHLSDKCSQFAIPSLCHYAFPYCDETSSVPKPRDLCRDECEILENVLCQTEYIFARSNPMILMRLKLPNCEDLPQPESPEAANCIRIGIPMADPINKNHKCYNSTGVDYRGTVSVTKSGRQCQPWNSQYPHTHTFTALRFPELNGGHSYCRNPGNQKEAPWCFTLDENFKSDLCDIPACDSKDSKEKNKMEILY
T5 sequence (Q01973 30-406): as above
T2 sequence (Q01973 165-391 limits assumed): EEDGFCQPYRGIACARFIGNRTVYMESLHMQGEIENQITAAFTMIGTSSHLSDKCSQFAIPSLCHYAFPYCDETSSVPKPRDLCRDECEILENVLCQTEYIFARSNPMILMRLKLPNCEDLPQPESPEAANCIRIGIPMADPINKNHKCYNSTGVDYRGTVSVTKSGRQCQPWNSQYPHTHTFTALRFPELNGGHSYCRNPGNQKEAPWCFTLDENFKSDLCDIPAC

B1: Clone O chimeric ROR1 antibody (antibody, V domains shown)
VH: QVRLLQSGAALVKPGASVKMSCKASGYTFTDYWMSWVKQSHGKSLEWIGEIYPNSGATNFNEKFKDKATLTVDRSTSTAYMELSRLTSEDSAIYYCARGFPNNYLSWFAYWGQGTLVTVSS
VL: DIVLTQSPALAVSLEQRVTIACKTSQNVDNHGISYMHWYQQKSGQEPKLLIYEGSNLAVGIPARFSGSGSGTDFTLTIDPVEADDIETYYCQQSKDDPRTFGGGTKLELK
As for B1, the binding result in assay [1] is listed as “no binding”. The binding result in assay [2] was “no binding”. Also, the binding result in assay [3] is listed as “no binding”. In assay [4], the Kd (as a rule, the equilibrium constant for the complex coming apart) worked out at 3.5 nM; the koff (in general, a measure of how fast the partners let go of each other) came to 0.000607 s⁻¹; the kon (as a rule, a measure of how fast the partners come together) amounted to 174000 M⁻¹ s⁻¹.

B2: R12 (previously published ROR1 antibody) (antibody, V domains shown)
VH: QEQLVESGGRLVTPGGSLTLSCKASGFDFSAYYMSWVRQAPGKGLEWIATIYPSSGKTYYATWVNGRFTISSDNAQNTVDLQMNSLTAADRATYFCARDSYADDGALFNIWGPGTLVTISS
VL: ELVLTQSPSVSAALGSPAKITCTLSSAHKTDTIDWYQQLQGEAPRYLMQVQSDGSYTKRPGVPDRFSGSSSGADRYLIIPSVQADDEADYYCGADYIGGYVFGGGTQLTVTG
Consider B2, for which the Q1 quadrant figure in assay [5] is 96.9.

B3: Clone J chimeric ROR1 antibody (antibody, V domains shown)
VH: DVKLVESGGGLLKPGGSLKLSCVASGFSFSKYWMHWVRQAPGQGLEWIAEIEYDGTETNYAPSIKDRFTISRDNAKNTLYLQMSNVRFEDAATYFCTTEEMHTTDYYYGFAYWGQGTLVTVSS
VL: DIVLTQSPALAVSVGQRATISCRASQSVSISRYDFMHWYQQKPGQQPKLLIYRASNLASGIPARFSGSGSGTDFTLTINPVQADDIATYYCQQNRESPRTFGGGTKLELK
notes: also called J6
Consider B3, for which, in assay [1], the binding result is on record as “no binding”. In addition, the binding result in assay [2] is reported as “no binding”. In assay [3], the binding result was “no binding”. Also, in assay [4], the equilibrium dissociation constant (Kd) turned out to be 3.35 nM, the off-rate constant (koff) is 0.000835 s⁻¹ and the kon is 249000 M⁻¹ s⁻¹.

B4: Clone E7 chimeric ROR1 antibody (antibody, V domains shown)
VH: GKLVESGGGLLKPGGSLKLSCVASGFTFDKYWMHWVRQAPGKGLEWIAEIEYDGTETNYAPSIKDRFTISRDNAKNTLYLQMSNVRSEDAATYFCTTEEMYTTDYYYGFAYWGQGTLVTVSS
VL: B3 VL with D34N
B4: the binding result in assay [1] is reported as “no binding”. Besides, in assay [2], the binding result is given as “no binding”. For the same molecule, in assay [3], the binding result was “no binding”. In addition, in assay [4], the Kd came to 2.04 nM, the koff amounted to 0.000849 s⁻¹ and the on-rate (kon) is 417000 M⁻¹ s⁻¹.

B5: Clone B chimeric ROR1 antibody (antibody, V domains shown)
VH: DVQLEESGGGLVRPGRSLKLSCADSGVNFSNRGMAWVRQAPTKGLEWVATISYDGRIIYYRDSVKGRFSISRENAKSTLYLQMDSLRSEDTATYYCARHPIAADWYFDFWGPGTMVTVSS
VL: DIRMTQSPASLSASLGETVTIECLTSEDIYSDLAWFQQKPGKSPQLLIYDANSLQNGVPSRFGGCGSGTQYSLQISSLQSEDVATYFCQQYKNYPPTFGGGTKLVLK
notes: also called B5
In the case of B5, in assay [1], the binding result is listed as “no binding”. The binding result in assay [2] is listed as “no binding”. Besides, in assay [3], the binding result is “no binding”. In assay [4], this molecule yielded a Kd of 1.5 nM, a dissociation rate constant (koff) of 0.000698 s⁻¹ and an on-rate constant (kon) of 464000 M⁻¹ s⁻¹.

B6: Clone G5 chimeric ROR1 antibody (antibody, V domains shown)
VH: EVQVVESGGGLVQPGRSLKLSCVPSGFTFNNYWMTWIRQAPGKAPEWVASISNTGGSTFYPDSVRGRFSISRDNTKGTLYLHMTSLRSEDTATYYCIRNMDAWGQGTSVTVSS
VL: DIQLTQSPSTLSASLGERVTISCRASQSISNSLNWYQQKPDGTVKRLIYSTSTLESGVPSRFSGSGSGTDFSLSISSLESEDFAMYYCLQFATYPQVTFGSGTKLEIK
B6: the binding result in assay [1], in assay [2] and in assay [3] was “no binding” each time. The molecule also came in with a Kd in assay [4] of 2.61 nM. The koff in assay [4] stood at 0.000416 s⁻¹. Also, the association rate constant (kon) in assay [4] stood at 159000 M⁻¹ s⁻¹. Further, the Q1 quadrant figure in assay [6] was 96.7.

B7: Clone I chimeric ROR1 antibody (antibody, V domains shown)
VH: EVQLVESGGGSVQPGRSLKLSCAASGFTFSDYNMAWVRQAPKKGPEWVATITYDVHNAYYRDSVKGRFTISRDDAKSTLYLQMDSLRSEDTATYFCARPGAYWGQGTLVTVSS
VL: DIQLTQSPSSMSASLGDRVSLTCQSSQGIGKYLSWYQHKPGKPPKAMIYYATKLADGVPSRFSGSRSGSDFSLTISSLESEDIAIYYCLQFDDYPWTFGGGTKLELK
With B7, in assay [1], the binding result is on record as “no binding”. Moreover, in assay [2], the binding result is reported as “no binding”. Also, the binding result in assay [3] was “no binding”. In assay [4], this molecule registered a dissociation constant Kd of 2.44 nM, a koff of 0.00051 s⁻¹ and an association rate constant (kon) of 209000 M⁻¹ s⁻¹.

B8: Clone Pi chimeric ROR1 antibody (antibody, V domains shown)
VH: EVQLVESGGGLVQPGRSLTLSCSASGFTFRDYNMAWVRQAPRKGLEWVATISFDDYNTYYRDSVKGRFTISRDDAKSTLYLQMDSLRSEDTATYYCARPGTYWGQGTLVTVSS
VL: DIQLTQSPSSLSASLGDRVSLTCQSSQGIGKYLSWFQHKPGKPPKPVINYATNLADGVPSRFSGRRSGSDFSLTISSLESEDTAIYYCLQFDDFRWTVGGGTKLELK
Regarding B8, in assay [1], the binding result was “no binding”. In addition, the binding result in assay [2] is “no binding”. Moreover, the binding result in assay [3] is recorded as “no binding”. In addition, in assay [4], the affinity, expressed as Kd, was 1.98 nM; the off-rate (koff) is 0.000349 s⁻¹; the kon is 176000 M⁻¹ s⁻¹.

B9: 4a5 (previously published ROR1 antibody) (antibody, V domains shown)
VH: EVKLVESGGGLVKPGGSLKLSCAASGFTFSSYAMSWVRQIPEKRLEWVASISRGGTTYYPDSVKGRFTISRDNVRNILYLQMSSLRSEDTAMYYCGRYDYDGYYAMDYWGQGTSVTVSS
VL: DIKMTQSPSSMYASLGERVTITCKASPDINSYLSWFQQKPGKSPKTLIYRANRLVDGVPSRFSGGGSGQDYSLTINSLEYEDMGIYYCLQYDEFPYTFGGGTKLEMK
As for B9, the Q1 quadrant figure in assay [5] is 96.9.

B10: Clone G3 chimeric ROR1 antibody (antibody, V domains shown)
VH: EVQLQESGPGLVKPAQSLSLTCSVTGYSITNMYRWNWIRKFPGNKLEWMGYINTAGSTDYSPSLRGRVSITGDTSKNQFFLHLTSVTTEDTATYYCAGFITNPFDFWGQGVMVTVSS
VL: DVVMTQTPVSLPVSLGGQVSISCRSSQSLEHSNGDTFLHWYLQKPGQSPRLLIYRVSNRFSGVPDRFSGSGSGTDFTLKISRIEPEDLGDYYCLQSTHFPNTFGAGTKLELK
Consider B10, for which the binding result in assay [1] is given as “no binding”. Also, the binding result in assay [2] is recorded as “no binding”. Further, in assay [3], the binding result is reported as “no binding”. In assay [4], this molecule yielded an equilibrium dissociation constant (Kd) of 2.45 nM, a koff of 0.000266 s⁻¹ and a kon of 109000 M⁻¹ s⁻¹. Besides, the Q1 quadrant figure in assay [6] worked out at 96.1.

B11: D10 (previously published ROR1 antibody, the prototype of Cirmtuzumab) (antibody, V domains shown)
VH: QVQLKESGPGLVAPSQTLSITCTVSGFSLTSYGVHWVRQPPGKGLEWLGVIWAGGFTNYNSALKSRLSISKDNSKSQVLLKMTSLQTDDTAMYYCARRGSSYSMDYWGQGTSVIVSS
VL: EIVLSQSPAITAASLGQKVTITCSASSNVSYIHWYQQRSGTSPRPWIYEISKLASGVPVRFSGSGSGTSYSLTISSMEAEDAAIYYCQQWNYPLITFGSGTKLEIQ
Regarding B11, the Q1 quadrant figure in assay [5] is 84.3.
